According to patent US20070280945A1 (Regeneron, published 2007):

Key:
hIL-6R-hFc (human) = hIL-6R-hFc (human) (UniProt P08887); experiment: blocking ELISA: 100 pM hIL-6R-hFc premixed with varied antibody, free hIL-6R-hFc captured on hIL-6-coated plate
[1] = target: recombinant hIL-6R protein, monomeric form (human) (UniProt P08887); experiment: Kinexa solution-phase competition immunoassay, monomeric hIL-6R
[2] = target: recombinant hIL-6R protein, monomeric form (human) (UniProt P08887); experiment: SPR (BIAcore), captured antibody, monomeric hIL-6R
[3] = target: hIL-6R on hIL-6-responsive human cells (XG-1 myeloma line, HepG2 hepatoma line) (human) (UniProt P08887); experiment: cell-based or functional assay
[4] = target: recombinant hIL-6R protein, monomeric form (human) (UniProt P08887); experiment: SPR (BIAcore), captured antibody, monomeric IL-6R 1.25-40 nM injected
[5] = target: Recombinant monkey monomeric IL-6R protein (Macaca fascicularis, extracellular domain) (Macaca fascicularis); experiment: as above
hIL-6R-hFc [6] = target: T1, hIL-6R-hFc (human, UniProt P08887 20-358); experiment: SPR (BIAcore), antibody captured on anti-mouse IgG surface, dimeric hIL-6R
T1 construct: also called dimeric hIL-6R; Dimer; not shown: human Fc (hFc)
T1 sequence: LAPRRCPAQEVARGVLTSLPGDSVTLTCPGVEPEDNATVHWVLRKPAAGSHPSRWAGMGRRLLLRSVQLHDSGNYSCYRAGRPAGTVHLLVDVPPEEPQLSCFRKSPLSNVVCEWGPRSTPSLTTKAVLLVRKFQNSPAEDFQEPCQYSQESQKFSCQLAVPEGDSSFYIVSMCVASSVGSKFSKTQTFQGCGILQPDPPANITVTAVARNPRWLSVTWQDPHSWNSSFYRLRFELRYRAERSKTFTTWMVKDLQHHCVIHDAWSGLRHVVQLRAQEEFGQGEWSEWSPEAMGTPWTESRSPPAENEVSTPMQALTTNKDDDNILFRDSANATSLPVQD

[7] = target: T2, recombinant hIL-6R protein, monomeric form (human, UniProt P08887 20-358); experiment: SPR (BIAcore), antibody captured on anti-mouse IgG surface, monomeric hIL-6R
T2 construct: also called monomeric hIL-6R; Human IL6R
T2 sequence: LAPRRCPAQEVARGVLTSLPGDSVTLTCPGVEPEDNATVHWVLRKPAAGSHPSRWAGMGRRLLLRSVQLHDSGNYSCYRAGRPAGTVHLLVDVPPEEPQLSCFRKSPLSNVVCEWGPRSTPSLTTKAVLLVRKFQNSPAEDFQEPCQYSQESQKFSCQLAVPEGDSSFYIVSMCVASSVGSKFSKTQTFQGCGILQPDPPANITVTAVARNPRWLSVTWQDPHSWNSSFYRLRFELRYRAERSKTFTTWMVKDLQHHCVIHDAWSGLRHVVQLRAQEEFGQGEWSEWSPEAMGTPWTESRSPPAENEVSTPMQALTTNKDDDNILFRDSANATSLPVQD

hIL-6R-hFc [8] = target: T1, hIL-6R-hFc; experiment: competition ELISA: antibody premixed with serial dilutions of hIL-6R-hFc, free antibody detected on hIL-6R-hFc-coated plate
hIL-6R-hFc [9] = target: T1, hIL-6R-hFc; experiment: blocking ELISA: 100 pM hIL-6R-hFc premixed with varied antibody, free hIL-6R-hFc captured on hIL-6-coated plate
[10] = target: T3, hIL-6R on hIL-6-responsive human cells (XG-1 myeloma line, HepG2 hepatoma line) (human, UniProt P08887 20-468); experiment: cell-based or functional assay
T3 sequence (looked up): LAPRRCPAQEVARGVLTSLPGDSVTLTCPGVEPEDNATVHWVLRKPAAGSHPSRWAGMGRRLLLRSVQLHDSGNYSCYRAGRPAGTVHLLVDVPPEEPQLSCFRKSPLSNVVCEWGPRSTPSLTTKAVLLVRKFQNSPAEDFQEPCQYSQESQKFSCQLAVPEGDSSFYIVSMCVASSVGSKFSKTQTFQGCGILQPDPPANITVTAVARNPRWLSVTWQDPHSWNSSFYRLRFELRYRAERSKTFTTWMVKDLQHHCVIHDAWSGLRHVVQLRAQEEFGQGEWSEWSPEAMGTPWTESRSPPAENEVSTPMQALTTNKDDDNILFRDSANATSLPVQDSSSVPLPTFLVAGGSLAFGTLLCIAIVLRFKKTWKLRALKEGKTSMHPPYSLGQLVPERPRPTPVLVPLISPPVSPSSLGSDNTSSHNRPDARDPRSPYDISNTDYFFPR

[11] = target: T4, hIL-6R recombinant protein (plate-coated, Example 5) (human, UniProt P08887 20-358, limits assumed); experiment: competition ELISA on hIL-6R-coated plate presaturated with competitor control antibody; test antibody 50 ng/ml
T4 construct: also called antigen
T4 sequence: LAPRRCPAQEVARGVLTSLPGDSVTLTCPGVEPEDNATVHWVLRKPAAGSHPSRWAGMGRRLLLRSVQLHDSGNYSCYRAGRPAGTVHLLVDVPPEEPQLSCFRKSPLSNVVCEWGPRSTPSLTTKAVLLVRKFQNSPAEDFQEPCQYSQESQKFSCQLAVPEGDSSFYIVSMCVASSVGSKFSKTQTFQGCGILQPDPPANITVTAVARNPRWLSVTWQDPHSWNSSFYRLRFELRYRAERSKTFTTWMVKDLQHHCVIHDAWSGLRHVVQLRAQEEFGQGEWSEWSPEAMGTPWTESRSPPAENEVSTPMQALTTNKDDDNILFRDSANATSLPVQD

hIL-6R-hFc [12] = target: T1, hIL-6R-hFc; experiment: SPR (BIAcore): hIL-6R-hFc captured, antibody injected, then 50 nM hIL-6; percent reduction in hIL-6 binding
[13] = target: T4, hIL-6R recombinant protein …; experiment: SPR (BIAcore) competition on hIL-6R; competitor: control antibody
[14] = target: T2, recombinant hIL-6R protein, monomeric …; experiment: Kinexa solution-phase competition immunoassay, monomeric hIL-6R
[15] = target: T2, recombinant hIL-6R protein, monomeric …; experiment: SPR (BIAcore), antibody captured on goat anti-mouse Fc, monomeric IL-6R 1.25-40 nM injected
[16] = target: T5, Recombinant monkey monomeric IL-6R protein (Macaca fascicularis, extracellular domain) (Macaca fascicularis, UniProt P08887 21-330 (human entry)); experiment: as above
T5 construct: also called Monkey IL6R; monkey IL-6R
T5 chain: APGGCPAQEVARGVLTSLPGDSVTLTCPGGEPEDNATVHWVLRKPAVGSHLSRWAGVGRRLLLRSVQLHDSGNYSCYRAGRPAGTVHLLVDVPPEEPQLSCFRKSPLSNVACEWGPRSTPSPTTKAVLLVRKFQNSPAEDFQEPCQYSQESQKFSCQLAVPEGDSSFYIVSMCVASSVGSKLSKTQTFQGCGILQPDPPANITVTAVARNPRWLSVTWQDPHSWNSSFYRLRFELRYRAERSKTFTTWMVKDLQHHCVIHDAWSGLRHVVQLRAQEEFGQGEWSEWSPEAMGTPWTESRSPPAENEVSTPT

[17] = target: T2, recombinant hIL-6R protein, monomeric …; experiment: SPR (BIAcore), captured mouse-IgG antibody, monomeric hIL-6R 1.56-12.5 nM
[18] = target: T5, Recombinant monkey monomeric IL-6R …; experiment: SPR (BIAcore); reference: binding to human IL-6R; end of range tied to this antibody by Table 4 (0.569 against 0.377 nM)
[19] = target: T3, hIL-6R on hIL-6-responsive human cells …; experiment: cell-based or functional assay; remark: listed apart in the source
[20] = target: T2, recombinant hIL-6R protein, monomeric …; experiment: SPR (BIAcore), captured antibody, monomeric hIL-6R
[21] = target: T2, recombinant hIL-6R protein, monomeric …; experiment: SPR (BIAcore), captured mouse-IgG antibody, monomeric hIL-6R 1.56-12.5 nM; mIgG2a isotype
[22] = target: T5, Recombinant monkey monomeric IL-6R …; experiment: SPR (BIAcore); reference: binding to human IL-6R; end of range tied to this antibody by Table 4 (0.143 against 0.051 nM)

humanized monoclonal antibody to human IL-6R (U.S. Patent No. 5,817,790 SEQ ID NO:69 and 71), sequence (VH): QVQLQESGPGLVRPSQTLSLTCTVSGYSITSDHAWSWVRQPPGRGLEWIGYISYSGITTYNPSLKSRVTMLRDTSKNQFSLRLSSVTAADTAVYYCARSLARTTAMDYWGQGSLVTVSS
humanized monoclonal antibody to human IL-6R (U.S. Patent No. 5,817,790 SEQ ID NO:69 and 71), sequence (VL): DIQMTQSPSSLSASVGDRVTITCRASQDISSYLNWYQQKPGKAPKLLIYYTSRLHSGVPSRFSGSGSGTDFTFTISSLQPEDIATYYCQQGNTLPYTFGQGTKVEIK

Row | Molecule | Kd (hIL-6R-hFc [6]) | Kd [7] | IC50 (hIL-6R-hFc [8]) | IC50 (hIL-6R-hFc [9]) | HepG2/STAT3 luciferase assay IC50 [10] | % reduction of binding by control antibody [11] | hIL6/hIL6R Binding Inhibition (%) (hIL-6R-hFc [12]) | % reduction of binding by control antibody [13] | Kd [14] | Kd [15] | koff [15] | kon [15] | Kd [16] | koff [16] | kon [16] | Kd [17] | koff [17] | kon [17] | HepG2/Stat3 Luciferase activity IC50 [19] | XG-1 cell proliferation Inhibition IC50 [19] | other results
1 | humanized monoclonal antibody to human IL-6R (U.S. Patent No. 5,817,790 SEQ ID NO:69 and 71) |  |  |  |  |  |  |  |  |  |  |  |  |  |  |  |  |  |  |  |  | IC50 (hIL-6R-hFc (human)): 2.2 nM; Kd [1]: 1.96 nM; Kd [2]: 1.79 nM; HepG2/Stat3 Luciferase activity IC50 [3]: 0.854 nM; XG-1 cell proliferation Inhibition IC50 [3]: 1.5 nM; Kd [4]: 0.963 nM; Kd [5]: 1.17 nM
2 | VQ8A9-6 (antibody, V domains shown, Human variable regions with mouse constant region (hybridoma-derived chimeric antibody); also called VQ8A9-6 mIgG1) VH: EVQLVESGGNLVQPGRSLRLSCAASGFIFDDYAMHWVRQAPGKGLEWVSGISWNSGSIGYADSVKGRFTISRDNAKNSLYLQMNSLRAEDTALYYCAKDGGSSWLPFVYYYGMDVWGQGTTVTVSS VL: EIVMTQSPATLSVSPGERATLSCRASQSISSNFAWYQQKPGQAPRLLIYGASTRATGIPARFSGSGSGTDFTLTISSLQSEDFAVYYCQQYSSWPPYTFGQGTKLEIK | 0.101 nM | 0.222 nM | 0.004 nM | 0.39 nM | 0.097 nM | 3% | 68% | 26% | 0.12 nM | 0.377 nM | 0.000276 s⁻¹ | 732000 M⁻¹ s⁻¹ | 0.569 nM | 0.000416 s⁻¹ | 731000 M⁻¹ s⁻¹ | 0.222 nM | 0.000221 s⁻¹ | 995000 M⁻¹ s⁻¹ | 0.097 nM | 0.4 nM | fold difference of KD, monkey against human receptor [18]: 1.5 fold
3 | 248982-13-2-A9 (antibody, V domains shown) VH: QVQLVQSGGGLVQPGRSLRLSCAASGFTFDDYAMHWVRQAPGKGLEWVSGISWNSGRVGYADSVKGRFTISRDNAKNSLYLQMNSLRAEDTALYYCTKGRDAFDIWGQGTMVTVSS VL: DIVMTQSPSSVSASVGDRVTITCRASQGISSWLAWYQQKPGKAPKLLIYAASSLQSGVPSRFSGSGSGTDFTLTISSLQPEDFATYYCQQANSFPYTFGQGTKLEIK |  |  | 0.054 nM |  |  |  |  |  |  |  |  |  |  |  |  |  |  |  |  |  | Kd [20]: 2.87 nM
4 | VQ8F11-21 (antibody, V domains shown, Human variable regions with mouse constant region; also called VQ8F11-21 mIgG2a) VH: EVQLVESGGGLVQPGRSLRLSCAASRFTFDDYAMHWVRQAPGKGLEWVSGISWNSGRIGYADSVKGRFTISRDNAENSLFLQMNGLRAEDTALYYCAKGRDSFDIWGQGTMVTVSS VL: DIQMTQSPSSVSASVGDRVTITCRASQGISSWLAWYQQKPGKAPKLLIYGASSLESGVPSRFSGSGSGTDFTLTISSLQPEDFASYYCQQANSFPYTFGQGTKLEIK | 0.023 nM | 0.067 nM | 0.008 nM | 0.12 nM | 0.135 nM | 79% | 98% | 96% | 0.009 nM | 0.051 nM | 4.38e-05 s⁻¹ | 851000 M⁻¹ s⁻¹ | 0.143 nM | 4.86e-05 s⁻¹ | 339000 M⁻¹ s⁻¹ |  | 5.27e-05 s⁻¹ | 786000 M⁻¹ s⁻¹ | 0.135 nM | 0.62 nM | Kd [21]: 0.067 nM; fold difference of KD, monkey against human receptor [22]: 3 fold
5 | VV6A9-5 (antibody, V domains shown, Human variable regions with mouse constant region; also called VV6A9-5 mIgG2a) VH: EVQLVESGGGLVQPGRSLRLSCAASGFTFDDYALHWVRQAPGKGLEWVSGVSWNGGRIGYADSVKGRFTISRDNAKNSLFLQMNSLRVEDTALYYCAKGRDAFDIWGQGTLVTVSS VL: DIQMTQSPSSVSASVGDRVTITCRASQGISSWLAWYQQKPGKAPKLLIYAASSLQSGVPSRFSGSGSGTDFTLTISSLQPEDFATYYCQHAYSFPYTFGQGTKLEIK | 0.146 nM | 0.097 nM | 0.005 nM | 0.35 nM | 0.188 nM | 84% | 100% | 96% | 0.032 nM | 0.162 nM | 8.41e-05 s⁻¹ | 518000 M⁻¹ s⁻¹ | 0.154 nM | 7.7e-05 s⁻¹ | 500000 M⁻¹ s⁻¹ | 0.097 nM | 7.52e-05 s⁻¹ | 772000 M⁻¹ s⁻¹ | 0.188 nM | 1.1 nM | 
